Experimental data published in publication PMC6497169 (Nature microbiology, 2017).

Tests used:
[1] = target: T1, DotN(7–214) (L. pneumophila (Philadelphia-1), UniProt Q5ZYB7 7-214); experiment: crystal structure
T1 sequence: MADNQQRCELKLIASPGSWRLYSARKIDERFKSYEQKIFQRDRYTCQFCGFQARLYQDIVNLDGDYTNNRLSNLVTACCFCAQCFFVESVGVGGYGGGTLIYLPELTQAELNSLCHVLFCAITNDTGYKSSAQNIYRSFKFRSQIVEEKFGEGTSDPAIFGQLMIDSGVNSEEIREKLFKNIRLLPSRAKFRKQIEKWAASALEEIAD

[2] = target: T2, IcmW (L. pneumophila (Philadelphia-1), UniProt Q5ZS31 1-151); experiment: crystal structure
T2 sequence: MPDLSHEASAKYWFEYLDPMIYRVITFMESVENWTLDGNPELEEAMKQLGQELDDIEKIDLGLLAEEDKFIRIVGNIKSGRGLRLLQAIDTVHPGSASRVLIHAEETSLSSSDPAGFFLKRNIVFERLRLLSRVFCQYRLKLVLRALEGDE

B1: DotL(590–659) (domain or fragment)
chain: VEPPPDDYLMKLQKQLASFQSILESGDLSINKAVENEEITLISKALKESTIVEPIERGVAALIAFHGQNE
B1: binds [1].

B2: DotL(656–783) (domain or fragment)
chain: GQNEPEPVEDIVEEEVEGALTIFSKLRIDPNAPPILVADKEVFSEPLLPINETRNQMITIERLAGAKDKYAGTVANELIKDFQIATSYPPEERDVIDVQELTGIIRDLSAKISAEREKANKKAAEELT
B2: binds [2].
